In IntAct's records for PubMed 24256567:

B1: Tyrosine-protein kinase ZAP-70 (Homo sapiens), P43403 (parent)
chain: MPDPAAHLPFFYGSISRAEAEEHLKLAGMADGLFLLRQCLRSLGGYVLSLVHDVRFHHFPIERQLNGTYAIAGGKAHCGPAELCEFYSRDPDGLPCNLRKPCNRPSGLEPQPGVFDCLRDAMVRDYVRQTWKLEGEALEQAIISQAPQVEKLIATTAHERMPWYHSSLTREEAERKLYSGAQTDGKFLLRPRKEQGTYALSLIYGKTVYHYLISQDKAGKYCIPEGTKFDTLWQLVEYLKLKADGLIYCLKEACPNSSASNASGAAAPTLPAHPSTLTHPQRRIDTLNSDGYTPEPARITSPDKPRPMPMDTSVYESPYSDPEELKDKKLFLKRDNLLIADIELGCGNFGSVRQGVYRMRKKQIDVAIKVLKQGTEKADTEEMMREAQIMHQLDNPYIVRLIGVCQAEALMLVMEMAGGGPLHKFLVGKREEIPVSNVAELLHQVSMGMKYLEEKNFVHRDLAARNVLLVNRHYAKISDFGLSKALGADDSYYTARSAGKWPLKWYAPECINFRKFSSRSDVWSYGVTMWEALSYGQKPYKKMKGPEVMAFIEQGKRMECPPECPPELYALMSDCWIYKWEDRPDFLTVEQRMRACYYSLASKVEGPPGSTQKAEAACA

Variants of: B1
Conditions: with ubs3b_mouse Ubash3b

Variant	effect of a mutation on the interaction
Y319F	disrupting interaction
